The text below walks through data of US20160017055A1.

The target of the assay is wild type plasma kallikrein recombinant catalytic domain (Pichia pastoris) (human) (UniProt P03952). Description: enzyme inhibition assay: rate (F/s) of cleavage of a substrate peptide by PKal against [IgG] (nM), fitted to the Morrison equation (apparent Ki); panel 'X115-F02 vs WT'.

B1: X115-F02 (antibody, human IgG1, kappa, V domains shown)
VH: EVQLLESGGGLVQPGGSLRLSCAASGFTFSHYIMMWVRQAPGKGLEWVSGIYSSGGITVYADSVKGRFTISRDNSKNTLYLQMNSLRAEDTAVYYCAYRRIGVPRRDEFDIWGQGTMVTVSS
VL: DIQMTQSPSTLSASVGDRVTITCRASQSISSWLAWYQQKPGKAPKLLIYKASTLESGVPSRFSGSGSGTEFTLTISSLQPDDFATYYCQQYNTYWTFGQGTKVEIKR
Regarding B1, the Ki amounted to 0.09 nM.
